Laboratory results from the supplement of paper PMC10126150.
± gives the standard deviation of the averaged measurements.

System: ATP
Assay: switch fluorescence ratio, 500 uM ATP over buffer (Cy3 cluster intensity, sum of 5 cycles each) (fold (ratio)); higher = stronger signal-on switching upon ATP binding; sequences stand for … in TCGTCGGCAGCGTCAGATGTGTATAAGAGACAGTTTTTTTTTTTTTTTTTTTTTTTTT…TC
Conditions: aptamer strand: ATP DNA aptamer (quencher-CACCTGGGGGAGTATTGCGGAGGAAGG + anchor), 100 nM annealed; ATP concentration: 500 uM
Procedure, shortened: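 The quencher-labelled ATP aptamer, at 100 nM, was annealed to Cy3-labelled switching-strand clusters on a modified Illumina MiSeq flow-cell. The clusters were imaged in selection buffer, then after 15 min with 500 uM ATP at 22 °C, and this buffer/ATP cycle ran five times with NaOH stripping and re-annealing between runs. Per-cluster fluorescence ratios, summed target-cycle over summed buffer-cycle Cy3 intensity, were averaged per switch-domain sequence. Clusters outside 100-1000 RFU were excluded.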
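Further: ATP exposure 15 min at 22 °C before imaging.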

Sequence	switch fluorescence ratio
GTGAAGGTCG	0.927 ± 0.022
GTGAATAGTT	0.995 ± 0.032
GTGAATGCTG	0.938 ± 0.048
GTGACAAAAA	1.027 ± 0.0026
GTGACCGTGT	1 ± 0.053
GTGACGAAGA	1.033 ± 0.0065
GTGACGATGT	1.01 ± 0.0071
GTGACGGGGC	1.02 ± 0.058
GTGAGAAGAA	0.97 ± 0.01
GTGAGAGAGT	0.962 ± 0.015
GTGAGCCGTT	1.04 ± 0.025
GTGAGGATGG	0.978 ± 0.012
GTGAGGATTG	0.98581 ± 8e-05
GTGAGGGGCT	0.977 ± 0.04
GTGAGGGGGG	1.01 ± 0.013
GTGAGGGTGG	0.9695 ± 0.0093
GTGAGGTATC	1.04 ± 0.032
GTGAGGTCGG	0.968 ± 0.015
GTGAGTAGGT	0.974 ± 0.014
GTGAGTCAGC	1.06 ± 0.075
GTGAGTTTGT	1.01 ± 0.027
GTGATAAAAT	1.01 ± 0.031
GTGATACAAA	0.999 ± 0.022
GTGATCCCCG	1.006 ± 0.0041
GTGATGACTT	1.001 ± 0.0061

Sequence	switch fluorescence ratio
GTGATGGATG	0.997 ± 0.057
GTGATGGTTT	0.982 ± 0.013
GTGATGTCTC	1.008 ± 0.0091
GTGATTATGG	0.981 ± 0.028
GTGATTTGCG	1.008 ± 0.0036
GTGATTTGT	1.01 ± 0.03
GTGATTTTCT	0.998 ± 0.015
GTGCAATGGC	1.57 ± 0.18
GTGCCAACGT	0.981 ± 0.035
GTGCCCTGTA	0.9704 ± 0.0046
GTGCGAATGG	0.998 ± 0.016
GTGCTAGCTC	1.004 ± 0.0034
GTGCTAGGTT	0.984 ± 0.023
GTGCTTAGGC	1.06 ± 0.026
GTGCTTGGGC	0.9955 ± 0.0058
GTGCTTGGGG	0.99 ± 0.044
GTGGAAAAAA	1 ± 0.02
GTGGAAAGAT	1.01 ± 0.018
GTGGAAGGTA	0.991 ± 0.011
GTGGAATGGT	0.986 ± 0.024
GTGGACAGGG	1 ± 0.013
GTGGAGGCGC	0.989 ± 0.023
GTGGAGTTGG	1.31 ± 0.44
GTGGATAAAA	0.972 ± 0.029
GTGGATATTT	0.986 ± 0.015

Sequence	switch fluorescence ratio
GTGGATGTAC	1.06 ± 0.05
GTGGATTGCG	0.9975 ± 0.0075
GTGGCAAAGT	0.9678 ± 9.7e-05
GTGGCACTGT	0.989 ± 0.019
GTGGCCAACC	1.02 ± 0.0022
GTGGCGGGAG	0.997 ± 0.017
GTGGCGGTTT	0.995 ± 0.044
GTGGCGTAGA	1.02 ± 0.012
GTGGCGTGCT	0.976 ± 0.045
GTGGCTCAGG	1.05 ± 0.054
GTGGCTGGG	0.988 ± 0.038
GTGGGAAGTC	0.965 ± 0.04
GTGGGAAGTG	0.975 ± 0.025
GTGGGACATA	0.999 ± 0.044
GTGGGATGAT	0.9663 ± 0.0078
GTGGGATTGC	0.9959 ± 0.0067
GTGGGCCGCG	0.979 ± 0.029
GTGGGCGATT	1.01 ± 0.024
GTGGGGCGCC	1.01 ± 0.03
GTGGGGGTGC	0.987 ± 0.033
GTGGGGTAAA	1.01 ± 0.055
GTGGGGTACT	0.9612 ± 0.0055
GTGGGGTTGC	0.984 ± 0.021
GTGGGTAACT	0.998 ± 0.041
GTGGGTACGG	1 ± 0.028

Sequence	switch fluorescence ratio
GTGGGTATTG	1 ± 0.02
GTGGGTCATA	0.953 ± 0.099
GTGGGTCCTA	0.9891 ± 0.0013
GTGGGTCGGG	1.006 ± 0.0049
GTGGGTTCGC	1 ± 0.043
GTGGGTTGGC	1.03 ± 0.043
GTGGGTTGTA	1.01 ± 0.05
GTGGTAACTT	1.007 ± 0.0082
GTGGTAAGCT	1.02 ± 0.049
GTGGTACACG	1.01 ± 0.026
GTGGTACGTG	1 ± 0.064
GTGGTAGGGC	1.021 ± 0.001
GTGGTAGTGG	0.949 ± 0.023
GTGGTCCGGG	0.979 ± 0.037
GTGGTCCGTG	0.962 ± 0.0097
GTGGTCGTGC	0.9761 ± 0.0041
GTGGTGAGGC	1.001 ± 0.0055
GTGGTGAGTG	0.97 ± 0.021
GTGGTGGCTG	0.976 ± 0.048
GTGGTGGGTC	0.975 ± 0.026
GTGGTGGGTG	1 ± 0.091
GTGGTTAAGA	0.9961 ± 0.002
GTGGTTCTGA	1.03 ± 0.024
GTGGTTCTGG	1.01 ± 0.018
GTGGTTGCGG	0.987 ± 0.04

Sequence	switch fluorescence ratio
GTGGTTTGGT	0.979 ± 0.035
GTGGTTTGTG	1 ± 0.011
GTGTAACGTT	1 ± 0.042
GTGTAAGTAG	0.997 ± 0.024
GTGTACCCGT	0.96 ± 0.035
GTGTACGGTG	1.01 ± 0.013
GTGTAGGCTT	1 ± 0.015
GTGTAGGGGT	0.9779 ± 0.0083
GTGTATATAC	0.993 ± 0.013
GTGTATGCAA	1.03 ± 0.029
GTGTATGGGG	0.968 ± 0.063
GTGTATGTTG	0.9976 ± 0.0067
GTGTATTGGG	0.993 ± 0.025
GTGTCATTTT	0.991 ± 0.025
GTGTCCACAG	1 ± 0.014
GTGTCTCCAG	1.03 ± 0.049
GTGTGAAATC	0.987 ± 0.043
GTGTGAAGGT	0.991 ± 0.032
GTGTGACAGA	1.01 ± 0.014
GTGTGACTTC	0.988 ± 0.018
GTGTGATGTG	0.9681 ± 0.0051
GTGTGCAGGG	0.945 ± 0.031
GTGTGCCAGC	0.969 ± 0.013
GTGTGCCGGG	0.97 ± 0.0043
GTGTGCCTGG	0.985 ± 0.055

Sequence	switch fluorescence ratio
GTGTGCTGCA	1.03 ± 0.092
GTGTGTAATT	1.01 ± 0.059
GTGTGTTCTT	1.014 ± 0.008
GTGTTAACCT	1.25 ± 0.045
GTGTTAACGG	0.982 ± 0.017
GTGTTAGAAG	0.9749 ± 0.0015
GTGTTAGCGA	0.997 ± 0.045
GTGTTAGTAC	0.984 ± 0.056
GTGTTATAGT	0.993 ± 0.024
GTGTTATCGG	1 ± 0.045
GTGTTATTTA	0.977 ± 0.046
GTGTTCCGTG	1.01 ± 0.015
GTGTTCGGTA	0.9704 ± 0.0062
GTGTTGAACG	1.04 ± 0.071
GTGTTGAGGC	0.974 ± 0.05
GTGTTGAGGT	0.984 ± 0.022
GTGTTTACGA	0.984 ± 0.027
GTGTTTACTT	1.01 ± 0.021
GTGTTTATGA	1.06 ± 0.053
GTGTTTCTAT	1 ± 0.013
GTGTTTGTGG	0.966 ± 0.033
GTGTTTGTGT	0.983 ± 0.028
GTGTTTGTTG	0.989 ± 0.029
GTGTTTTAGC	1.009 ± 0.0098
GTGTTTTCAG	0.988 ± 0.03

Sequence	switch fluorescence ratio
GTGTTTTCCA	0.985 ± 0.036
GTGTTTTGAA	1.01 ± 0.022
GTGTTTTTGG	0.983 ± 0.022
GTTAAAAAAT	1.06 ± 0.17
GTTAAAGATT	1.001 ± 0.0083
GTTAAAGCAT	1.01 ± 0.03
GTTAAAGGGC	1.03 ± 0.034
GTTAAGGGGC	0.996 ± 0.017
GTTAATGGGG	0.986 ± 0.054
GTTACATGTT	0.993 ± 0.024
GTTACCAGGT	1.16 ± 0.097
GTTACGGGGT	0.975 ± 0.024
GTTACTATTT	1.01 ± 0.019
GTTACTCTGA	1.055 ± 0.0083
GTTACTGTGG	0.9663 ± 0.005
GTTACTTGAG	0.9985 ± 0.005
GTTAGAATGG	0.981 ± 0.017
GTTAGCCGAA	1.05 ± 0.032
GTTAGCGAAG	1 ± 0.019
GTTAGGAGAA	0.9807 ± 0.0092
GTTAGGGCGT	1.01 ± 0.011
GTTAGGGGG	1.02 ± 0.023
GTTAGGGTTT	0.996 ± 0.024
GTTAGTAGGT	0.994 ± 0.021
GTTAGTGGTT	1.02 ± 0.015

Sequence	switch fluorescence ratio
GTTAGTGTTT	1.01 ± 0.013
GTTAGTTTGG	1 ± 0.015
GTTATAAGGA	0.988 ± 0.019
GTTATACGGG	1.01 ± 0.024
GTTATCAGAG	0.977 ± 0.021
GTTATCGGCG	1.01 ± 0.022
GTTATGAGTC	1.02 ± 0.03
GTTATGCGCC	1.02 ± 0.028
GTTATGGGTA	0.989 ± 0.025
GTTATTAGAG	0.987 ± 0.026
GTTATTCATT	1.004 ± 0.0034
GTTATTGCTC	1.12 ± 0.19
GTTATTGCTT	0.98 ± 0.068
GTTATTGTAT	0.977 ± 0.014
GTTATTTGCT	0.988 ± 0.02
GTTATTTTAG	0.988 ± 0.037
GTTATTTTCG	0.987 ± 0.028
GTTATTTTGA	1.01 ± 0.017
GTTCAAACGG	0.967 ± 0.018
GTTCAACTCA	0.993 ± 0.012
GTTCCCGGGA	1.028 ± 0.0024
GTTCCGCCTG	1.094 ± 0.0043
GTTCCGGGGT	1.05 ± 0.05
GTTCCTCGCT	2.77 ± 0.33
GTTCGCGGGG	1.06 ± 0.12
